From the supplement of paper PMC10724198 come the findings set out here.

Data set [1] relates to Saccharomyces cerevisiae. The experiment in a line: protein stability index of tFT-peptide fusion in deletion strain of DOA10 (PSI (0-1 scale)); higher = more stable (slower turnover). As for the experimental part:
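MPS profiling in S. cerevisiae of two library types built from selected 12-aa C-degron peptides (IN1, IN2, LN1, LN3, VN2, R1-R5, W1-W3, Atg1 and Rpa12 C-termini): saturation mutagenesis libraries and C-terminal +1 capping libraries (13 aa). Each peptide is fused to the C-terminus of a sfGFP-mCherry timer, after a GGGS linker. Cells are FACS-sorted into 8 mCherry/sfGFP bins and sequenced. PSI runs from 0 (unstable) to 1 (stable), measured once in wild type and in the das1Δ or doa10Δ background.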

The test system of data set [2] is Saccharomyces cerevisiae. The experiment in a line: protein stability index of tFT-peptide fusion in wild type (PSI (0-1 scale)); higher = more stable (slower turnover). As to conditions: genetic background: wild type.
Data set [3] concerns Saccharomyces cerevisiae. Nature of the data set: protein stability index of tFT-peptide fusion (C-terminal peptide) (PSI (0-1 scale)); higher = more stable (slower turnover). The procedure: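 MPS profiling in S. cerevisiae of the tFT-X12 degron library: putative degron peptides plus stable controls, 12 aa, fused to the C-terminus of a sfGFP-mCherry timer. Cells are FACS-sorted into 8 mCherry/sfGFP bins and deep-sequenced. PSI runs from 0 (unstable) to 1 (stable). Backgrounds are wild type, das1Δ and doa10Δ at 30 °C, and wild type, das1Δ, cdc34-1 and cdc53-1 at 37 °C; 2-3 technical replicates each.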

The test system of data set [4] is Saccharomyces cerevisiae. The data set is described as above. As to conditions: genetic background: wild type; temperature: 30 C.

± gives the standard deviation of the averaged measurements.
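For protein stability index of tFT-peptide fusion (C-terminal peptide) in this document: PSI is a weighted mean of sequencing reads over stability bins, variants kept only with over 10 reads, mCherry proximal and sfGFP distal, peptide attached via GGGS linker.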
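For protein stability index of tFT-peptide fusion in deletion strain of DOA10 in this document: PSI per variant is the weighted mean of its sequencing read distribution over the sorted stability bins, counting only variants with over 10 reads summed across bins.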
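For protein stability index of tFT-peptide fusion in wild type in this document: PSI derived as read-weighted mean over the 8 sorting bins, only variants exceeding 10 total reads kept, mCherry placed adjacent to the peptide and sfGFP distal.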

As to GLYMCSVGCWFR, the protein stability index with Saccharomyces cerevisiae [1] came to 0.629; in the data set with Saccharomyces cerevisiae [2] it was 0.264; in the data set on Saccharomyces cerevisiae [3] (genetic background: cdc34-1, temperature: 37 C), 0.104 ± 0.0033; in the data set on Saccharomyces cerevisiae [3] (genetic background: cdc53-1, temperature: 37 C), 0.0717 ± 0.0099; with Saccharomyces cerevisiae [3] (genetic background: das1 deletion, temperature: 30 C), 0.223 ± 0.033; with Saccharomyces cerevisiae [3] (genetic background: das1 deletion, temperature: 37 C), 0.2809 ± 0.001. The protein stability index in the data set on Saccharomyces cerevisiae [3] (genetic background: doa10 deletion, temperature: 30 C) was found to be 0.586 ± 0.011; with Saccharomyces cerevisiae [3] (genetic background: wild type, temperature: 30 C), 0.231 ± 0.018; in the data set with Saccharomyces cerevisiae [3] (genetic background: wild type, temperature: 37 C), 0.252 ± 0.0062; in the data set with Saccharomyces cerevisiae [4], 0.408 ± 0.085.
As for GLYMCSVGCWFRP, the protein stability index in the data set with Saccharomyces cerevisiae [1] stood at 0.62; in the data set on Saccharomyces cerevisiae [2] it was 0.287.
Consider GLYMCSVGCWFRQ, for which the figures for the protein stability index in the data set with Saccharomyces cerevisiae [1] and in the data set with Saccharomyces cerevisiae [2] were 0.182 and 0.113, respectively.
The like results for GLYMCSVGCWFRS were, in that order, 0.521 and 0.267.
On the same counts, the results for GLYMCSVGCWFRW are 0.621 and 0.231.
The like results for GLYMCSVGCWGR were, in that order, 0.659 and 0.625.
Regarding GLYMCSVGCWNR, the protein stability index stood at 0.64 with Saccharomyces cerevisiae [1] and 0.618 with Saccharomyces cerevisiae [2].
The like results for GLYMCSVGCYFR were, in that order, 0.638 and 0.425.
On the same counts, the results for GLYMCSVGDWFR are 0.689 and 0.677.
As to GLYMCSVGIWFR, the figures for the protein stability index with Saccharomyces cerevisiae [1] and in the data set on Saccharomyces cerevisiae [2] were 0.409 and 0.165, respectively.
In the case of GLYMCSVGMWFR, the protein stability index in the data set on Saccharomyces cerevisiae [1] is 0.577; in the data set with Saccharomyces cerevisiae [2], 0.307.
The like results for GLYMCSVKCWFR were, in that order, 0.462 and 0.415.
On to GLYMCSYGCWFR, for which the protein stability index in the data set with Saccharomyces cerevisiae [1] came to 0.677; with Saccharomyces cerevisiae [2], 0.299.
On the same counts, the results for GSYMCSVGCWFR are 0.678 and 0.411.
The like results for ILVSLPILLFFR were, in that order, 0.545 and 0.111.
The like results for KLVSLPILLFFR were, in that order, 0.612 and 0.0816.
RETRLDAIYFRI: the protein stability index in the data set with Saccharomyces cerevisiae [1] turned out to be 0.667; in the data set with Saccharomyces cerevisiae [2] it was 0.545.
On the same counts, the results for RKTRLDAIYFRI are 0.628 and 0.49.
The like results for RSARVLLPLYFR were, in that order, 0.687 and 0.336.
On the same counts, the results for RSLRPLLPLYFR are 0.688 and 0.316.
As for RSLRVLCPLYFR, the protein stability index in the data set with Saccharomyces cerevisiae [1] worked out at 0.652; in the data set with Saccharomyces cerevisiae [2], 0.305.
For RSLRVLFPLYFR, the values for the protein stability index in the data set with Saccharomyces cerevisiae [1] and in the data set with Saccharomyces cerevisiae [2] were 0.684 and 0.196, respectively.
On the same counts, the results for RSLRVLKPLYFR are 0.675 and 0.304.
On the same counts, the results for RSLRVLLFLYFR are 0.45 and 0.21.
On the same counts, the results for RSLRVLLPLAFR are 0.652 and 0.37.
For the sequence RSLRVLLPLYCR, the protein stability index in the data set with Saccharomyces cerevisiae [1] was 0.457; with Saccharomyces cerevisiae [2] it was 0.266.
The like results for RSLRVLLPLYFC were, in that order, 0.175 and 0.0775.
The like results for RSLRVLLPLYFRR were, in that order, 0.675 and 0.315.
With RSLRVLLPLYFRW, the figures for the protein stability index in the data set with Saccharomyces cerevisiae [1] and with Saccharomyces cerevisiae [2] were 0.677 and 0.215, respectively.
The like results for RSLRVLLPLYFV were, in that order, 0.428 and 0.25.
The like results for RSLRVLLPLYFW were, in that order, 0.589 and 0.339.
RSLRVLLPLYYR: the protein stability index is 0.657 with Saccharomyces cerevisiae [1] and 0.375 in the data set with Saccharomyces cerevisiae [2].
The like results for RSLRVLMPLYFR were, in that order, 0.697 and 0.254.
The like results for RSLRVWLPLYFR were, in that order, 0.693 and 0.166.
The like results for RSTRVLLPLYFR were, in that order, 0.684 and 0.292.
As to RVTHLDAIYFRI, the protein stability index in the data set with Saccharomyces cerevisiae [1] was 0.645; in the data set with Saccharomyces cerevisiae [2] it was 0.471.
Regarding RVTPLDAIYFRI, the protein stability index in the data set on Saccharomyces cerevisiae [1] amounted to 0.675; with Saccharomyces cerevisiae [2] it was 0.547.
On the same counts, the results for RVTRLAAIYFRI are 0.38 and 0.173.
The like results for RVTRLDAAYFRI were, in that order, 0.704 and 0.653.
As for RVTRLDAIDFRI, the protein stability index in the data set on Saccharomyces cerevisiae [1] is 0.746; in the data set with Saccharomyces cerevisiae [2] it was 0.668.
The like results for RVTRLDAITFRI were, in that order, 0.72 and 0.678.
On the same counts, the results for RVTRLDAIYFEI are 0.725 and 0.69.
On the same counts, the results for RVTRLDAIYFII are 0.111 and 0.0744.
For the sequence RVTRLDAIYFRG, the protein stability index is 0.701 with Saccharomyces cerevisiae [1] and 0.664 in the data set with Saccharomyces cerevisiae [2].
On the same counts, the results for RVTRLDAIYFRH are 0.716 and 0.604.
Take RVTRLDAIYFRIF: the protein stability index in the data set on Saccharomyces cerevisiae [1] was determined as 0.0962; in the data set on Saccharomyces cerevisiae [2] it was 0.0593.
The like results for RVTRLDAIYFRIQ were, in that order, 0.256 and 0.218.
On the same counts, the results for RVTRLDAIYFRK are 0.711 and 0.673.
On the same counts, the results for RVTRLDAIYFRS are 0.72 and 0.641.
With RVTRLDAIYFRT, the protein stability index came to 0.703 in the data set on Saccharomyces cerevisiae [1] and 0.546 with Saccharomyces cerevisiae [2].
On the same counts, the results for RVTRLDAIYFYI are 0.449 and 0.425.
Regarding RVTRLDAIYRRI, the values for the protein stability index in the data set on Saccharomyces cerevisiae [1] and in the data set on Saccharomyces cerevisiae [2] were 0.721 and 0.684, respectively.
On to RVTRLSAIYFRI, for which the protein stability index came out at 0.458 in the data set on Saccharomyces cerevisiae [1] and 0.22 in the data set on Saccharomyces cerevisiae [2].
On the same counts, the results for RVTRLVAIYFRI are 0.394 and 0.19.
On the same counts, the results for RVTRLWAIYFRI are 0.377 and 0.167.
In the case of RVTRRDAIYFRI, the protein stability index came out at 0.673 in the data set with Saccharomyces cerevisiae [1] and 0.485 in the data set with Saccharomyces cerevisiae [2].
RVTVLDAIYFRI: the protein stability index is 0.651 in the data set on Saccharomyces cerevisiae [1] and 0.516 in the data set with Saccharomyces cerevisiae [2].
On the same counts, the results for RWTRLDAIYFRI are 0.528 and 0.337.
Regarding SLVSLPILLFFR, the results for the protein stability index with Saccharomyces cerevisiae [1] and in the data set with Saccharomyces cerevisiae [2] were 0.619 and 0.0746, respectively.
